The test system of assay [1] is GFP-14-3-3β and its binding proteins. Kind of assay: GFP-14-3-3β co-IP with LC-MS/MS label-free quantification, untreated versus PP1c-treated. Further details: species or system human. The following applies: pairwise comparison PP1 vs untreated.
The test system of a further assay is GFP-14-3-3β. Nature of the assay: GFP-14-3-3β co-IP with LC-MS/MS, untreated GFP-14-3-3β versus GFP control (14-3-3 interactome). In kind it is binding, human. The following applies: pairwise comparison untreated vs GFP.

B1: PHF6 (protein, UniProt Q8IWS0 2-365, looked up)
PHD finger protein 6: SSSVEQKKGPTRQRKCGFCKSNRDKECGQLLISENQKVAAHHKCMLFSSALVSSHSDNESLGGFSIEDVQKEIKRGTKLMCSLCHCPGATIGCDVKTCHRTYHYHCALHDKAQIREKPSQGIYMVYCRKHKKTAHNSEADLEESFNEHELEPSSPKSKKKSRKGRPRKTNFKGLSEDTRSTSSHGTDEMESSSYRDRSPHRSSPSDTRPKCGFCHVGEEENEARGKLHIFNAKKAAAHYKCMLFSSGTVQLTTTSRAEFGDFDIKTVLQEIKRGKRMKCTLCSQPGATIGCEIKACVKTYHYHCGVQDKAKYIENMSRGIYKLYCKNHSGNDERDEEDEERESKSRGKVEIDQQQLTQQQLNGN
On to B1, for which, in assay [1], the “Difference (log2), PP1 vs untreated” value came to 0.0136 log2. The “Difference (log2), untreated vs GFP” value in the assay on GFP-14-3-3β worked out at 0.8956 log2.

B2: TUBB6 (protein, UniProt Q9BUF5 1-446, looked up)
Tubulin beta-6 chain: MREIVHIQAGQCGNQIGTKFWEVISDEHGIDPAGGYVGDSALQLERINVYYNESSSQKYVPRAALVDLEPGTMDSVRSGPFGQLFRPDNFIFGQTGAGNNWAKGHYTEGAELVDAVLDVVRKECEHCDCLQGFQLTHSLGGGTGSGMGTLLISKIREEFPDRIMNTFSVMPSPKVSDTVVEPYNATLSVHQLVENTDETYCIDNEALYDICFRTLKLTTPTYGDLNHLVSATMSGVTTSLRFPGQLNADLRKLAVNMVPFPRLHFFMPGFAPLTSRGSQQYRALTVPELTQQMFDARNMMAACDPRHGRYLTVATVFRGPMSMKEVDEQMLAIQSKNSSYFVEWIPNNVKVAVCDIPPRGLKMASTFIGNSTAIQELFKRISEQFSAMFRRKAFLHWFTGEGMDEMEFTEAESNMNDLVSEYQQYQDATANDGEEAFEDEEEEIDG
Consider B2, for which, in assay [1], the “Difference (log2), PP1 vs untreated” value is on record as -0.03516 log2. Besides, in the assay with GFP-14-3-3β, the “Difference (log2), untreated vs GFP” value is on record as -0.8713 log2.

B3: DNAJC10 (protein, UniProt Q8IXB1 33-793, looked up)
DnaJ homolog subfamily C …: DQDFYSLLGVSKTASSREIRQAFKKLALKLHPDKNPNNPNAHGDFLKINRAYEVLKDEDLRKKYDKYGEKGLEDNQGGQYESWNYYRYDFGIYDDDPEIITLERREFDAAVNSGELWFVNFYSPGCSHCHDLAPTWRDFAKEVDGLLRIGAVNCGDDRMLCRMKGVNSYPSLFIFRSGMAPVKYHGDRSKESLVSFAMQHVRSTVTELWTGNFVNSIQTAFAAGIGWLITFCSKGGDCLTSQTRLRLSGMLDGLVNVGWMDCATQDNLCKSLDITTSTTAYFPPGATLNNKEKNSILFLNSLDAKEIYLEVIHNLPDFELLSANTLEDRLAHHRWLLFFHFGKNENSNDPELKKLKTLLKNDHIQVGRFDCSSAPDICSNLYVFQPSLAVFKGQGTKEYEIHHGKKILYDILAFAKESVNSHVTTLGPQNFPANDKEPWLVDFFAPWCPPCRALLPELRRASNLLYGQLKFGTLDCTVHEGLCNMYNIQAYPTTVVFNQSNIHEYEGHHSAEQILEFIEDLMNPSVVSLTPTTFNELVTQRKHNEVWMVDFYSPWCHPCQVLMPEWKRMARTLTGLINVGSIDCQQYHSFCAQENVQRYPEIRFFPPKSNKAYHYHSYNGWNRDAYSLRIWGLGFLPQVSTDLTPQTFSEKVLQGKNHWVIDFYAPWCGPCQNFAPEFELLARMIKGKVKAGKVDCQAYAQTCQKAGIRAYPTVKFYFYERAKRNFQEEQINTRDAKAIAALISEKLETLRNQGKRNKDEL
On to B3, for which the “Difference (log2), PP1 vs untreated” value in assay [1] is -0.01679 log2. In addition, the “Difference (log2), untreated vs GFP” value with GFP-14-3-3β is recorded as 0.1892 log2.

B4: HNRNPM (protein, UniProt P52272 2-730, looked up)
Heterogeneous nuclear …: AAGVEAAAEVAATEIKMEEESGAPGVPSGNGAPGPKGEGERPAQNEKRKEKNIKRGGNRFEPYANPTKRYRAFITNIPFDVKWQSLKDLVKEKVGEVTYVELLMDAEGKSRGCAVVEFKMEESMKKAAEVLNKHSLSGRPLKVKEDPDGEHARRAMQKVMATTGGMGMGPGGPGMITIPPSILNNPNIPNEIIHALQAGRLGSTVFVANLDYKVGWKKLKEVFSMAGVVVRADILEDKDGKSRGIGTVTFEQSIEAVQAISMFNGQLLFDRPMHVKMDERALPKGDFFPPERPQQLPHGLGGIGMGLGPGGQPIDANHLNKGIGMGNIGPAGMGMEGIGFGINKMGGMEGPFGGGMENMGRFGSGMNMGRINEILSNALKRGEIIAKQGGGGGGGSVPGIERMGPGIDRLGGAGMERMGAGLGHGMDRVGSEIERMGLVMDRMGSVERMGSGIERMGPLGLDHMASSIERMGQTMERIGSGVERMGAGMGFGLERMAAPIDRVGQTIERMGSGVERMGPAIERMGLSMERMVPAGMGAGLERMGPVMDRMATGLERMGANNLERMGLERMGANSLERMGLERMGANSLERMGPAMGPALGAGIERMGLAMGGGGGASFDRAIEMERGNFGGSFAGSFGGAGGHAPGVARKACQIFVRNLPFDFTWKMLKDKFNECGHVLYADIKMENGKSKGCGVVKFESPEVAERACRMMNGMKLSGREIDVRIDRNA
Regarding B4, in assay [1], the “Difference (log2), PP1 vs untreated” value is -0.01052 log2. Besides, the “Difference (log2), untreated vs GFP” value in the assay with GFP-14-3-3β was determined as 0.1311 log2.

B5: SLC1A5 (protein, UniProt Q15758 1-541, looked up)
Neutral amino acid …: MVADPPRDSKGLAAAEPTANGGLALASIEDQGAAAGGYCGSRDQVRRCLRANLLVLLTVVAVVAGVALGLGVSGAGGALALGPERLSAFVFPGELLLRLLRMIILPLVVCSLIGGAASLDPGALGRLGAWALLFFLVTTLLASALGVGLALALQPGAASAAINASVGAAGSAENAPSKEVLDSFLDLARNIFPSNLVSAAFRSYSTTYEERNITGTRVKVPVGQEVEGMNILGLVVFAIVFGVALRKLGPEGELLIRFFNSFNEATMVLVSWIMWYAPVGIMFLVAGKIVEMEDVGLLFARLGKYILCCLLGHAIHGLLVLPLIYFLFTRKNPYRFLWGIVTPLATAFGTSSSSATLPLMMKCVEENNGVAKHISRFILPIGATVNMDGAALFQCVAAVFIAQLSQQSLDFVKIITILVTATASSVGAAGIPAGGVLTLAIILEAVNLPVDHISLILAVDWLVDRSCTVLNVEGDALGAGLLQNYVDRTESRSTEPELIQVKSELPLDPLPVPTEEGNPLLKHYRGPAGDATVASEKESVM
With B5, the “Difference (log2), PP1 vs untreated” value in assay [1] is recorded as -0.02668 log2. Further, the “Difference (log2), untreated vs GFP” value in the assay on GFP-14-3-3β amounted to 0.7589 log2.

B6: SPECC1 (protein, UniProt Q5M775 1-1068, looked up)
Cytospin-B: MRSAAKPWNPAIRAGGHGPDRVRPLPAASSGMKSSKSSTSLAFESRLSRLKRASSEDTLNKPGSTAASGVVRLKKTATAGAISELTESRLRSGTGAFTTTKRTGIPAPREFSVTVSRERSVPRGPSNPRKSVSSPTSSNTPTPTKHLRTPSTKPKQENEGGEKAALESQVRELLAEAKAKDSEINRLRSELKKYKEKRTLNAEGTDALGPNVDGTSVSPGDTEPMIRALEEKNKNFQKELSDLEEENRVLKEKLIYLEHSPNSEGAASHTGDSSCPTSITQESSFGSPTGNQMSSDIDEYKKNIHGNALRTSGSSSSDVTKASLSPDASDFEHITAETPSRPLSSTSNPFKSSKCSTAGSSPNSVSELSLASLTEKIQKMEENHHSTAEELQATLQELSDQQQMVQELTAENEKLVDEKTILETSFHQHRERAEQLSQENEKLMNLLQERVKNEEPTTQEGKIIELEQKCTGILEQGRFEREKLLNIQQQLTCSLRKVEEENQGALEMIKRLKEENEKLNEFLELERHNNNMMAKTLEECRVTLEGLKMENGSLKSHLQGEKQKATEASAVEQTAESCEVQEMLKVARAEKDLLELSCNELRQELLKANGEIKHVSSLLAKVEKDYSYLKEICDHQAEQLSRTSLKLQEKASESDAEIKDMKETIFELEDQVEQHRAVKLHNNQLISELESSVIKLEEQKSDLERQLKTLTKQMKEETEEWRRFQADLQTAVVVANDIKCEAQQELRTVKRKLLEEEEKNARLQKELGDVQGHGRVVTSRAAPPPVDEEPESSEVDAAGRWPGVCVSRTSPTPPESATTVKSLIKSFDLGRPGGAGQNISVHKTPRSPLSGIPVRTAPAAAVSPMQRHSTYSSVRPASRGVTQRLDLPDLPLSDILKGRTETLKPDPHLRKSPSLESLSRPPSLGFGDTRLLSASTRAWKPQSKLSVERKDPLAALAREYGGSKRNALLKWCQKKTQGYANIDITNFSSSWSDGLAFCALLHTYLPAHIPYQELNSQEKKRNLLLAFEAAESVGIKPSLELSEMLYTDRPDWQSVMQYVAQIYKYFET
In the case of B6, the “Difference (log2), PP1 vs untreated” value in assay [1] was -0.005819 log2. Moreover, in the assay with GFP-14-3-3β, the “Difference (log2), untreated vs GFP” value turned out to be 0.2064 log2.

The values are drawn from paper PMC7367873, “Dissecting the sequence determinants for dephosphorylation by the catalytic subunits of phosphatases PP1 and PP2A” (Nature Communications, 2020).
